Measurements: paper PMC546129

Tests used:
[1] = target: Gal4-DBD–Vnd, construct A2 (amino acids 3–613) (Drosophila) (UniProt P22808); assay: two-hybrid
[2] = target: Gal4-DBD–Vnd, construct A1 (amino acids 3–717) (Drosophila) (UniProt P22808); assay: two-hybrid

“VP16–Dichaete (pACT-Dichaete) (natural protein)” was tested, and the fold alleviation of repression (two-hybrid reporter) [1] was 3 to 3.5 fold and the fold reduction of repression (two-hybrid reporter) [2] was 6 fold.
